Reference: doi:10.1101/525329
Where two headings read alike, the source gives them in different places.

Assays:
Assay in all cases: co-sedimentation
[1] = molecular target: paclitaxel-stabilized microtubules (bovine brain tubulin) (bovine) (UniProt Q6B856)
[2] = molecular target: paclitaxel-stabilized microtubules (bovine brain tubulin) (bovine) (UniProt Q6B856); remark: listed apart in the source
[3] = molecular target: paclitaxel-stabilized microtubules (bovine brain tubulin) (bovine) (UniProt Q6B856); remark: listed apart in the source
[4] = molecular target: paclitaxel-stabilized microtubules (bovine brain tubulin) (bovine) (UniProt Q6B856); remark: listed apart in the source
[5] = molecular target: paclitaxel-stabilized microtubules (bovine brain tubulin) (bovine) (UniProt Q6B856); remark: listed apart in the source

Chain of paclitaxel-stabilized microtubules (bovine brain tubulin) (bovine) (Q6B856 whole entry, looked up): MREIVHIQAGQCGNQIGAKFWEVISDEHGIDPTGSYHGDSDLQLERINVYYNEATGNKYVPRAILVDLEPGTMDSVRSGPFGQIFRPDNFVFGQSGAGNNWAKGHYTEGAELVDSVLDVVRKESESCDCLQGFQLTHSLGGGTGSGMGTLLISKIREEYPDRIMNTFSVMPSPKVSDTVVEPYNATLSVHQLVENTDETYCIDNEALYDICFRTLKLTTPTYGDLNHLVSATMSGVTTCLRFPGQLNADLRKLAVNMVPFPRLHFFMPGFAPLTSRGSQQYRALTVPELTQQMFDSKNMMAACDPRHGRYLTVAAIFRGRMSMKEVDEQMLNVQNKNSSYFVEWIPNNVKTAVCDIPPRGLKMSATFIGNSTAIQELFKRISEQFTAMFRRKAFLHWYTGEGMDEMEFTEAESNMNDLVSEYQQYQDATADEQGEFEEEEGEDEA

Kd [1] | Kd [2] | Kd [3] | stoichiometry N [3] | stoichiometry N (motor bound per tubulin dimer) [3] | Kd [4] | stoichiometry N (motor per tubulin dimer) [3] | Kd [5] | Substance
3 µM | 2.9 µM | 0.1 µM | 1.4 | 1 | – | – | – | Cin8-EL8 (tagless): monomeric Cin8 motor with the loop-8 insert of Eg5 (domain or fragment)
– | – | 0.1 µM | – | – | 0.1 µM | 1 | – | Eg5-CL8-MBP (MBP-His6-TEV-Eg5-CL8) (from UniProt P27895 261-359) (domain or fragment)
– | – | 0.1 µM | 1.3 | – | – | – | 0.44 µM | Eg5-KL8: monomeric Eg5 motor domain with the loop-8 insert of Kip1 (domain or fragment)
– | – | 0.007 µM | 2.2 | – | – | – | – | wild type monomeric Cin8 motor domain with thioredoxin tag (Cin8-trx) (domain or fragment)
